Target: Raf2 fused to Gal4 DNA-binding domain (UniProt O74560)
Assay: yeast two-hybrid (β-galactosidase)
Settings: Ccq1 fused to Gal4 activation domain, read off a plot

Sequence of Ccq1_(496–583), Raf2-binding motif of Ccq1, fused to Gal4 activation domain (Q10432 496-583, stated change not applied): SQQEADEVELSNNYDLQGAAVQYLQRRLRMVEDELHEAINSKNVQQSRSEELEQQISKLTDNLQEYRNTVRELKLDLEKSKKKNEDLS
Sequence of Raf2 fused to Gal4 DNA-binding domain (O74560 whole entry, the tested form may be a part): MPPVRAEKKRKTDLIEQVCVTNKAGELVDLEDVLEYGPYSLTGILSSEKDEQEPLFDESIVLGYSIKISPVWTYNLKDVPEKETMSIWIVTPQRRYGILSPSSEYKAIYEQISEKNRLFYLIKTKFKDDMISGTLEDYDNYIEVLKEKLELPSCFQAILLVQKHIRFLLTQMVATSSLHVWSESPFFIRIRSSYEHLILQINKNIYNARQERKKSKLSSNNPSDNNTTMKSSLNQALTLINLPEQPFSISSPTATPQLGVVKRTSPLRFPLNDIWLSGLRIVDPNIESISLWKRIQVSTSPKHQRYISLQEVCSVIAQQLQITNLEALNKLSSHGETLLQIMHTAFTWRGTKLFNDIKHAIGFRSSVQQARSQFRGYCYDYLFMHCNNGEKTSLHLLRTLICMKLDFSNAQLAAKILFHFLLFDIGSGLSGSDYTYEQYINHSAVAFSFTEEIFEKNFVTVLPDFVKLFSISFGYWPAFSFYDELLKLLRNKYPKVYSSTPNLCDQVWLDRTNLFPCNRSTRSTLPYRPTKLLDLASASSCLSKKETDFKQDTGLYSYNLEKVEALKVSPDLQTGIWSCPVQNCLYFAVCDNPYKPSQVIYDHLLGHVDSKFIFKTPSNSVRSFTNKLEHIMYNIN

- response: 80
Substance: Ccq1_(496–583), Raf2-binding motif of Ccq1, fused to Gal4 activation domain (from UniProt Q10432) V570R

Reference: PMC8424379 (2021)
